Measurements: patent publication US20160017037A1 (GlaxoSmithKline, published 2016)
Positions count from the first letter of the chain named. Each block holds one binder with its values, some of them ahead of it.

Target: T1, Fc-tagged recombinant soluble LAG-3 (IMP321) (human, UniProt P18627 23-434)
T1 construct: also called LAG3-Ig molecule IMP321; recombinant sLAG-3; not shown: Fc / Ig part
T1 sequence (looked up): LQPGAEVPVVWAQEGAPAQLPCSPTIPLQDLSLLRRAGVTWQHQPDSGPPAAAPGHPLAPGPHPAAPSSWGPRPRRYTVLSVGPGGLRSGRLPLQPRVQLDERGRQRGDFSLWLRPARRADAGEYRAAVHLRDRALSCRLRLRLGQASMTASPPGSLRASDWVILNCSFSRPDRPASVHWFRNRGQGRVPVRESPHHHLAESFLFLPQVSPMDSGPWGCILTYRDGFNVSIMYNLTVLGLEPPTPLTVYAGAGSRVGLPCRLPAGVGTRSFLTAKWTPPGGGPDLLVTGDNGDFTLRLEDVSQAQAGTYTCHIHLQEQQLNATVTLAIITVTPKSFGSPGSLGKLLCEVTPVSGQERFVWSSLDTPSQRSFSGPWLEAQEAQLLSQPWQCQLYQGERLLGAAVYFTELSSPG
Assay: SPR Biacore 3000, off-rate comparison with IMP731, IMP321 analyte at 64 nM
Description: The binding kinetics of the purified antibodies for a sLAG-3 molecule were assessed by SPR using a Biacore™ 3000. A goat anti-human kappa antibody (Southern Biotech, Catalogue No. 2060-01) was immobilised on a CM5 chip by primary amine coupling. Humanised anti-LAG3 antibodies were captured on this surface and the LAG3-Ig molecule IMP321 (Chrystelle Brignone, Caroline Grygar, Manon Marcu, Knut Schakel, Frederic Triebel, The Journal of Immunology, 2007, 179: 4202-4211) used as the analyte at 64 nM with a buffer injection (i.e. 0 nM) used to double reference the binding curves. Regeneration was with 10 mM Glycine, pH1.5. The run was carried out on the Biacore™ 3000, using HBS-EP as running buffer and at 25° C. Sensorgrams were normalised for binding at maximal association and off-rates compared against IMP731 by visual inspection of the sensorgram profiles.

- Rank order of off-rates: 2
B1: H1L7 (antibody, human IgG1, kappa, V domains shown)
VH: QVQLQESGPGLVKPSETLSLTCTVSGFSLTAYGVNWIRQPPGKGLEWIGMIWDDGSTDYNSALKSRVTISVDTSKNQFSLKLSSVTAADTAVYYCAREGDVAFDYWGQGTLVTVSS
VL: DIQMTQSPSSLSASVGDRVTITCKSSQSLLNPSNQKNYLAWYQQKPGKAPKLLVYFASTRDSGVPSRFSGSGSGTDFTLTISSLQPEDFATYYCLQHFGTPPTFGQGTKLEIKR
notes: Humanised anti-LAG-3 variant, HEK 293 6E expressed

- Rank order of off-rates: 3
B2: J7L7 (antibody, human IgG1, kappa, V domains shown)
VH: QVQLVQSGAEVKKPGSSVKVSCKASGFSLTAYGVNWVRQAPGQGLEWMGMIWDDGSTDYNSALKSRVTITADKSTSTAYMELSSLRSEDTAVYYCAREGDVAFDYWGQGTLVTVSS
VL: B1 VL
notes: as for B1

- Rank order of off-rates: 10
B3: H0L7 (antibody, human IgG1, kappa, V domains shown)
VH: B1 VH with F27G, L29I, T30S
VL: B1 VL
notes: as for B1

- Rank order of off-rates: 4
B4: H4L7 (antibody, human IgG1, kappa, V domains shown)
VH: B1 VH with I48L, V67L, V71K, T73N, F78V
VL: B1 VL
notes: as for B1

- Rank order of off-rates: 9
B5: J0L7 (antibody, human IgG1, kappa, V domains shown)
VH: B2 VH with F27G, S28T, L29F, T30S
VL: B1 VL
notes: as for B1

- Rank order of off-rates: 5
B6: J11L7 (antibody, human IgG1, kappa, V domains shown)
VH: B2 VH with N60D
VL: B1 VL
notes: as for B1

- Rank order of off-rates: 7
B7: J13L7 (antibody, human IgG1, kappa, V domains shown)
VH: B2 VH with F27G, S28T, L29F, T30S, N60D
VL: B1 VL
notes: as for B1

- Rank order of off-rates: 6
B8: H2L7 (antibody, human IgG1, kappa, V domains shown)
VH: B1 VH with V71K, T73N, F78V
VL: B1 VL
notes: as for B1

- Rank order of off-rates: 8
B9: H7L7 (antibody, human IgG1, kappa, V domains shown)
VH: B1 VH with F27G, L29I, T30S, N60D
VL: B1 VL
notes: as for B1
